# Measurements from patent US20230193248A1.
# T1: M15-K(biotin)-AAR (SEQ ID NO: 8) peptide
# T1 chain: KAAR
# Legend:
# [1] = target: T1, M15-K(biotin)-AAR (SEQ ID NO: 8) peptide
# [2] = target: M15-L-P1 target polypeptide, P1 = A
# [3] = target: M15-L-P1 target polypeptide, P1 = I
# [4] = target: M15-L-P1 target polypeptide, P1 = L
# [5] = target: M15-L-P1 target polypeptide, P1 = M
# [6] = target: M15-L-P1 target polypeptide, P1 = Q
# [7] = target: M15-L-P1 target polypeptide, P1 = V
Protein,"percentage of conversion to cleavage product M15-K(biotin)-A (HPLC, UV absorbance at 254 nm) [1]",cleavage of single labeled NTAA [2],cleavage of single labeled NTAA [3],cleavage of single labeled NTAA [4],cleavage of single labeled NTAA [5],cleavage of single labeled NTAA [6],cleavage of single labeled NTAA [7]
engineered dipeptidyl peptidase clone (SEQ ID NO: 11) derived from dipeptidyl peptidase from Thermomonas hydrothermalis (SEQ ID NO: 10) (protein) DEGMWVPQQLPEIAGALKKAGLKLDPKQLSDLTGDPMGAVVSLGGCTGSFVSPQGLVATNHHCAYGAIQLNSTPEKNLIKDGFNAPTQADELSAGPNARIYVLEGITDVTAQAKAAMAAAGNDPVARANALEAFEKKITSDCEAEPGYRCRVYSFMGGITYRLFKNLEIKDVRLVYAPPSSVGKFGGDIDMGMWPTHTGDFSFYRAYVGKDGKPAPYSKDNVPYRPKHWLKIADTPLGEGDFVMVAGYPGRTDRYALVAEFENTQNWLYPAISKAYKDQIALVEAAAKDNPEIAVKYAAALAGWNRTSKNFDGQLEGFKRNDVLAIKRREEAAVLEWLRARGKAGTPALEAHAALVKLVADTARTQERDLVLGSFNRTGIIGVAVNLYRLAIERQKPDAEREPGYQQRDLPVIEGSLKQMERRYVPAMDRQLRAYWLDRYVALPAAQHVAAVDAWLGGSDKAAAEAALARLDQSRLGSLEERLKWFNADRAAFEASTDPAIQYAVAVMPTLLAMEQQAKTRYGVALEARPRYLQAVVDYKKSKGQAVYPDANSTLRITYGHVKGYTGLNGKVYTPFTTLEEVAAKETGVEPFDNPKALLEAVAAKRYAGLADARLGTVPVNFLADLDITGGNSGSPVLDANGRLVGLAFAVTLESVASNWVFDPVLTRMISVDQRYMRWIMQEVMPAPQLLEELGVPPRQ,"about 10% of the model peptide was converted to the cleavage product, M15-K(biotin)-A",,,,,,
first selected modified cleavase (M15-L Z001) (protein) MHKTRLVAALAAALATLAPAAWADEGMWVPQQLPEIAGALKKAGLKLDPKQLSDLTGDPMGAVVSLGGCTGSFVSPQGLVATNHHCAYGAIQLNSTPEKNLIKDGFNAPTQADELSAGPNARIYVLEGITDVTAQAKAAMAAAGNDPVARANALEAFEKKITSDCEAEPGYRCRVYSFMGGITYRLFKNLEIKDVRLVYAPPSSVGKFGGDIDMGMWPTHTGDFSFYRAYVGKDGKPAPYSKDNVPYRPKHWLKIADTPLGEGDFVMVAGYPGRTDRYALVAEFENTQNWLYPAISKAYKDQIALVEAAAKDNPEIAVKYAAALAGWNRTSKNFDGQLEGFKRNDVLAIKRREEAAVLEWLRARGKAGTPALEAHAALVKLVADTARTQERDLVLGSFNRTGIIGVAVNLYRLAIERQKPDAEREPGYQQRDLPVIEGSLKQMERRYVPAMDRQLRAYWLDRYVALPAAQHVAAVDAWLGGSDKAAAEAALARLDQSRLGSLEERLKWFNADRAAFEASTDPAIQYAVAVMPTLLAMEQQAKTRYGVALEARPRYLQAVVDYKKSKGQAVYPDANSTLRITYGHVKGYTGLNGKVYTPFTTLEEVAAKETGVEPFDNPKALLEAVAAKRYAGLADARLGTVPVNFLADLDITGGNSGSPVLDANGRLVGLAFAGTLESVASNWVFDPVLTRMISVDQRYMRWIMQEVMPAPQLLEELGVPPRQ,,provided 100% cleavage,provided 100% cleavage,provided 100% cleavage,provided 100% cleavage,provided 100% cleavage,provided 100% cleavage
